Here are results for 42 molecules from patent US20110070185A1 (Janssen / Centocor, published 2011).

The target of test [1] is T1, HLA-A2 molecules in T2 cells (human).
T1 construct: whole, on cells; Target of the HLA-A2 Stabilization Assay; also called MHC class I, HLA-A2; MHC/HLA-A2
As to the kind of experiment: HLA-A2 stabilization assay on T2 cells.

The target of test [2] is T1, HLA-A2 molecules in T2 cells. The test is described as follows: HLA-A2 stabilization assay on T2 cells. This is another data set of the same source.
Test [3] shares this target. The test is described as follows: HLA-A2 stabilization assay on T2 cells, flow cytometry with FITC anti-HLA-A2. In general terms: A flow cytometer gives signals particle by particle.

B1: P13-15 (peptide)
peptide: DLPGMTK
notes: synthetic truncated peptide; also called DLPGMTK
B1: in test [1], the binding result is reported as “no binding”.

B2: P13-6 (peptide)
peptide: TLVDLPGMTK
notes: synthetic truncated peptide
Take B2: the binding result in test [1] is reported as “no binding”.

B3: P13-3 (peptide)
peptide: DLPGMTKV
notes: synthetic truncated peptide
Regarding B3, in test [1], the binding result is listed as “no binding”.

B4: P13-5 (peptide)
peptide: PGMTKV
notes: synthetic truncated peptide; also called PGMTKV
On to B4, for which the binding result in test [1] is “no binding”.

B5: P13-4 (peptide)
peptide: LPGMTKV
notes: synthetic truncated peptide; also called LPGMTKV
Turning to B5, the binding result in test [1] was “no binding”.

B6: P14-7 (peptide)
peptide: TLIDLPGIT
notes: synthetic truncated peptide
In the case of B6, the binding result in test [1] is on record as “no binding”.

B7: P14-18 (peptide)
peptide: FMLQTYGQQL
notes: synthetic computer predicted peptide
Consider B7, for which, in test [2], the binding result is “no binding”.

B8: P14-1 (peptide)
peptide: LIDLPGITRV
notes: synthetic truncated peptide
For B8, the binding result in test [1] is on record as “no binding”.

B9: P3-5 (peptide)
peptide: SLVLNLL
notes: synthetic truncated peptide; also called SLVLNLL
For B9, the binding result in test [1] is listed as “no binding”.

B10: P14-17 (peptide)
peptide: DLPGITR
notes: synthetic truncated peptide; also called DLPGITR
With B10, in test [1], the binding result is recorded as “no binding”.

B11: P2 (peptide)
peptide: LLPGRTVLV
notes: synthetic peptide; also called peptide 2
With B11, the binding result in test [3] is reported as “no binding (tested: up to 200 uM)”.

B12: P13-7 (peptide)
peptide: TLVDLPGMT
notes: synthetic truncated peptide
B12: in test [1], the binding result is “no binding”.

B13: P13-14 (peptide)
peptide: VDLPGMT
notes: synthetic truncated peptide; also called VDLPGMT
For B13, in test [1], the binding result is “no binding”.

B14: P13-1 (peptide)
peptide: LVDLPGMTKV
notes: synthetic truncated peptide
Turning to B14, the binding result in test [1] is recorded as “no binding”.

B15: P14-4 (peptide)
peptide: LPGITRV
notes: synthetic truncated peptide; also called LPGITRV
On to B15, for which the binding result in test [1] is reported as “no binding”.

B16: P13-11 (peptide)
peptide: LVDLPGMT
notes: synthetic truncated peptide
In the case of B16, in test [1], the binding result is recorded as “no binding”.

B17: P14-11 (peptide)
peptide: TLIDLPGIT
notes: synthetic truncated peptide
As to B17, the binding result in test [1] is on record as “no binding”.

B18: P3-2 (peptide)
peptide: VLNLLEL
notes: synthetic truncated peptide; also called VLNLLEL
For B18, the binding result in test [1] is “no binding”.

B19: P13-8 (peptide)
peptide: TLVDLPGM
notes: synthetic truncated peptide
For the molecule B19, the binding result in test [1] is reported as “no binding”.

B20: P24 (peptide)
peptide: LKIHAREIFD
notes: synthetic peptide; also called peptide 24
With B20, the binding result in test [3] is given as “no binding (tested: up to 200 uM)”.

B21: P3-8 (peptide)
peptide: LVLNLLE
notes: synthetic truncated peptide; also called LVLNLLE
For the molecule B21, in test [1], the binding result is reported as “no binding”.

B22: P13-9 (peptide)
peptide: TLVDLPG
notes: synthetic truncated peptide; also called TLVDLPG
As for B22, in test [1], the binding result is “no binding”.

B23: P14-9 (peptide)
peptide: TLIDLPG
notes: synthetic truncated peptide; also called TLIDLPG
In the case of B23, in test [1], the binding result is recorded as “no binding”.

B24: P14-13 (peptide)
peptide: LIDLPGIT
notes: synthetic truncated peptide
In the case of B24, in test [1], the binding result was “no binding”.

B25: P3-1 (peptide)
peptide: LVLNLLEL
notes: synthetic truncated peptide
B25: the binding result in test [1] is given as “no binding”.

B26: P3-3 (peptide)
peptide: LNLLEL
notes: synthetic truncated peptide; also called LNLLEL
For the molecule B26, the binding result in test [1] was “no binding”.

B27: P13-2 (peptide)
peptide: VDLPGMTKV
notes: synthetic truncated peptide
As for B27, the binding result in test [1] is reported as “no binding”.

B28: P13-12 (peptide)
peptide: VDLPGMTK
notes: synthetic truncated peptide
Turning to B28, the binding result in test [1] was “no binding”.

B29: P14-12 (peptide)
peptide: LIDLPGITR
notes: synthetic truncated peptide
Take B29: the binding result in test [1] is recorded as “no binding”.

B30: P14-3 (peptide)
peptide: DLPGITRV
notes: synthetic truncated peptide
As to B30, the binding result in test [1] is listed as “no binding”.

B31: P3-7 (peptide)
peptide: SLVLNLL
notes: as for B9
Consider B31, for which, in test [1], the binding result is listed as “no binding”.

B32: P3-6 (peptide)
peptide: SLVLNL
notes: synthetic truncated peptide; also called SLVLNL
In the case of B32, in test [1], the binding result is recorded as “no binding”.

B33: P13-10 (peptide)
peptide: TLVDLP
notes: synthetic truncated peptide; also called TLVDLP
For the molecule B33, the binding result in test [1] is on record as “no binding”.

B34: P14-10 (peptide)
peptide: TLIDLP
notes: synthetic truncated peptide; also called TLIDLP
For the molecule B34, in test [1], the binding result is “no binding”.

B35: P14-5 (peptide)
peptide: PGITRV
notes: synthetic truncated peptide; also called PGITRV
For B35, in test [1], the binding result is on record as “no binding”.

B36: P4 (peptide)
peptide: RSLFLLYAL
notes: synthetic peptide; also called peptide 4; RSLFLLYAL
On to B36, for which, in test [3], the binding result is “no binding (tested: up to 200 uM)”.

B37: P3-4 (peptide)
peptide: SLVLNLLE
notes: synthetic truncated peptide
Consider B37, for which the binding result in test [1] is recorded as “no binding”.

B38: P14-8 (peptide)
peptide: TLIDLPGI
notes: synthetic truncated peptide
Regarding B38, the binding result in test [1] is given as “no binding”.

B39: P14-6 (peptide)
peptide: TLIDLPGITR
notes: synthetic truncated peptide
As to B39, the binding result in test [1] is recorded as “no binding”.

B40: P18 (peptide)
peptide: LKNKLKDLGH
notes: synthetic peptide; also called peptide 18
With B40, the binding result in test [3] is given as “no binding (tested: up to 200 uM)”.

B41: P14-2 (peptide)
peptide: IDLPGITRV
notes: synthetic truncated peptide
For the molecule B41, the binding result in test [1] is listed as “no binding”.

B42: P19 (peptide)
peptide: NLKAALENLGAL
notes: synthetic peptide; also called peptide 19; NLKAALENLGAL
Take B42: the binding result in test [3] is listed as “no binding (tested: up to 200 uM)”.
